Assay results published in PMC2120335 (The Journal of Cell Biology, 1995).

Target: the molecule itself
Test: negative-stain electron microscopy + sedimentation assay

Row | Protein | binding result
1 | 454C, COOH-terminal half of scruin (domain or fragment) MQQGDSSGSTMLEGNDRISGRIRTYISGYRPLPPDQDDLSKELVPVSIPFWPPDPDTTDSVFHTVRDQYRNPEEQMGFKHFYTIPRQMDPNLGMLLFMDEDYQHSKKVLGLRSVESVPYYINRFQASGTIQDNTIPVIIGTGGVDLRDPMNIAYGRSVFQYHPLKDRWEFFGYMPQPRNYHAAAYYRSAIYITGGYDPDVRTWGEMVATKTTFVYELASKNWTRMGDMRCARSHHSLLVFNDVLYAIGGRDDIGRLVSSVESYDHESNEWTMEKSMPSPRMGMAAVAHGGYIWLLGGLTSMTTEEPPVLDDVLCYDPVFKHWVDGRPLRIGRAFGNAAVCDNKIWLCGGAAPSTDENNYLVSVPAIDVYDEETMEWKQKTSLGCPRHSAIVVALESCLYIAGGVNSHELSATSRNELYMVDNDTIQTVRELPIPLTGMAAVTIPPKCVTFRSESLSIMIRHKVTP | binds
2 | 590C, smaller COOH-terminal fragment of scruin (domain or fragment) VIIGTGGVDLRDPMNIAYGRSVFQYHPLKDRWEFFGYMPQPRNYHAAAYYRSAIYITGGYDPDVRTWGEMVATKTTFVYELASKNWTRMGDMRCARSHHSLLVFNDVLYAIGGRDDIGRLVSSVESYDHESNEWTMEKSMPSPRMGMAAVAHGGYIWLLGGLTSMTTEEPPVLDDVLCYDPVFKHWVDGRPLRIGRAFGNAAVCDNKIWLCGGAAPSTDENNYLVSVPAIDVYDEETMEWKQKTSLGCPRHSAIVVALESCLYIAGGVNSHELSATSRNELYMVDNDTIQTVRELPIPLTGMAAVTIPPKCVTFRSESLSIMIRHKVTP | binds
